For 36 sequences, IC50 results are on record in the Immune Epitope Database (IEDB).

As a reminder, the pIC50 is −log10 of the IC50, conventionally taken in molar units.

Common to all, as to experiment: IEDB peptide-MHC binding, purified MHC/competitive/radioactivity; ≥ and ≤ were set here for values at or beyond the usual limits of such assays
Test [1] addresses HLA-A*02:01.
Test [2] addresses HLA-A*02:02.
For test [3], the target named is HLA-A*02:03.
Test [4] concerns the target HLA-A*02:06.
In test [5] the target is HLA-A*68:02.
[6] abbreviates: source organism: Hepacivirus hominis.
Where [7] appears, read: source organism: Vaccinia virus WR.
Where [8] appears, read: source organism: Influenza A virus.
Where [9] appears, read: source organism: Mammarenavirus whitewaterense.
[10] abbreviates: source organism: Mammarenavirus guanaritoense.

pIC50: −log10 of the molar value.

For VLMVDSFDPV, the pIC50 in test [1] (setting [6]) is 7.48; in test [2] (setting [6]), 7.89; in test [3] (setting [6]) it was 7.92; in test [4] (setting [6]) it was 7.51; in test [5] (setting [6]) it was 5.82.

In the case of VLVGGVLAAL, the negative logarithm of the IC50 (pIC50) was 7.22 in test [1] (setting [6]); 7.96 in test [2] (setting [6]); 8.30 in test [3] (setting [6]); 6.85 in test [4] (setting [6]); 6.82 in test [5] (setting [6]).

Consider VLWAHGFEL, for which the negative-log IC50 (pIC50) is 9.40 in test [1] (source organism: SARS-CoV1); 8.62 in test [2] (source organism: SARS-CoV1); 7.47 in test [3] (source organism: SARS-CoV1); 7.70 in test [4] (source organism: SARS-CoV1); 5.41 in test [5] (source organism: SARS-CoV1).

Regarding VMCGGSLYV, the pIC50 in test [1] (source organism: SARS-CoV1) was 9.41; in test [2] (source organism: SARS-CoV1), 9.21; in test [3] (source organism: SARS-CoV1) it was 8.12; in test [4] (source organism: SARS-CoV1), 8.17; in test [5] (source organism: SARS-CoV1) it was 5.54.

Consider VMYAFTTPL, for which the pIC50 in test [1] (setting [7]) is 9.06; in test [2] (setting [7]), 9.24; in test [3] (setting [7]) it was 8.89; in test [4] (setting [7]), 8.24; in test [5] (setting [7]), 6.95.

With VMYAFTTPLI, the negative logarithm of the IC50 (pIC50) in test [1] (setting [7]) is 8.51; in test [2] (setting [7]), 9.14; in test [3] (setting [7]), 8.32; in test [4] (setting [7]) it was 7.92; in test [5] (setting [7]) it was 6.88.

Regarding VMYASALVLL, the negative-log IC50 (pIC50) in test [1] (source organism: SARS-CoV1) is 8.24; in test [2] (source organism: SARS-CoV1), 9.60; in test [3] (source organism: SARS-CoV1), 8.40; in test [4] (source organism: SARS-CoV1), 7.39; in test [5] (source organism: SARS-CoV1), 6.12.

Take VNNAVVMPA: the pIC50 in test [1] (setting [8]) was 6.33; in test [2] (setting [8]) it was 6.64; in test [3] (setting [8]), 6.15; in test [4] (setting [8]), 6.08; in test [5] (setting [8]), 5.72.

For VQEFIFSAL, the pIC50 in test [1] (setting [7]) was 6.21; in test [2] (setting [7]), 6.38; in test [3] (setting [7]) it was 6.33; in test [4] (setting [7]) it was 6.70; in test [5] (setting [7]) it was 6.26.

For VTFINDYANL, the pIC50 in test [1] (setting [7]) was 5.61; in test [2] (setting [7]) it was 7.00; in test [3] (setting [7]), 6.61; in test [4] (setting [7]), 6.83; in test [5] (setting [7]), 6.28.

Regarding VTLFIDRGSI, the pIC50 in test [1] (setting [7]) is 5.82; in test [2] (setting [7]), 5.42; in test [3] (setting [7]), 5.65; in test [4] (setting [7]), 5.52; in test [5] (setting [7]), 7.85.

Take VVFLHVTYV: the pIC50 is 8.41 in test [1] (source organism: SARS-CoV1); 8.11 in test [2] (source organism: SARS-CoV1); 9.55 in test [3] (source organism: SARS-CoV1); 8.41 in test [4] (source organism: SARS-CoV1); 9.00 in test [5] (source organism: SARS-CoV1).

For the sequence VVHGYFTEV, the pIC50 was 7.82 in test [1] (source organism: SARS-CoV1); 7.77 in test [2] (source organism: SARS-CoV1); 8.48 in test [3] (source organism: SARS-CoV1); 8.59 in test [4] (source organism: SARS-CoV1); 7.62 in test [5] (source organism: SARS-CoV1).

For VVISVIFYFI, the pIC50 in test [1] (setting [7]) was 6.21; in test [2] (setting [7]), 6.62; in test [3] (setting [7]), 6.12; in test [4] (setting [7]), 6.27; in test [5] (setting [7]), 6.23.

Turning to WISDNTHIYL, the negative logarithm of the IC50 (pIC50) is 7.92 in test [1] (setting [7]); 9.85 in test [2] (setting [7]); 8.92 in test [3] (setting [7]); 8.74 in test [4] (setting [7]); 8.32 in test [5] (setting [7]).

On to WISFAISCFL, for which the pIC50 in test [1] (setting [8]) was 5.45; in test [2] (setting [8]), 6.64; in test [3] (setting [8]), 6.45; in test [4] (setting [8]) it was 6.09; in test [5] (setting [8]), 6.44.

Regarding WLGAAITLVV, the pIC50 in test [1] (setting [7]) was 6.91; in test [2] (setting [7]) it was 7.70; in test [3] (setting [7]), 7.11; in test [4] (setting [7]), 5.73; in test [5] (setting [7]), 6.58.

Turning to WLKDSAIMV, the pIC50 in test [1] (setting [7]) is 6.49; in test [2] (setting [7]), 6.72; in test [3] (setting [7]) it was 7.55; in test [4] (setting [7]), 5.64; in test [5] (setting [7]) it was 6.00.

As to WLLWPVTLA, the pIC50 in test [1] (source organism: SARS-CoV1) is 8.17; in test [2] (source organism: SARS-CoV1) it was 7.92; in test [3] (source organism: SARS-CoV1) it was 8.92; in test [4] (source organism: SARS-CoV1), 7.77; in test [5] (source organism: SARS-CoV1), 6.82.

In the case of WLMWFIISIV, the pIC50 in test [1] (source organism: SARS-CoV1) is 7.48; in test [2] (source organism: SARS-CoV1) it was 6.61; in test [3] (source organism: SARS-CoV1), 8.33; in test [4] (source organism: SARS-CoV1), 6.97; in test [5] (source organism: SARS-CoV1), 5.54.

For the sequence WLVIGVAFL, the pIC50 was 7.46 in test [1] (source organism: SARS-CoV1); 8.59 in test [2] (source organism: SARS-CoV1); 9.03 in test [3] (source organism: SARS-CoV1); 6.74 in test [4] (source organism: SARS-CoV1); 6.90 in test [5] (source organism: SARS-CoV1).

As to WSYNAELLVA, the pIC50 in test [1] (setting [8]) is 6.59; in test [2] (setting [8]), 6.62; in test [3] (setting [8]), 7.85; in test [4] (setting [8]), 7.82; in test [5] (setting [8]), 5.79.

For WVMDTLNGI, the pIC50 in test [1] (setting [7]) was 7.92; in test [2] (setting [7]) it was 8.01; in test [3] (setting [7]), 9.00; in test [4] (setting [7]), 9.14; in test [5] (setting [7]), 9.36.

On to WVMDTLNGIM, for which the negative logarithm of the IC50 (pIC50) in test [1] (setting [7]) was 6.76; in test [2] (setting [7]) it was 5.88; in test [3] (setting [7]), 6.71; in test [4] (setting [7]), 6.89; in test [5] (setting [7]), 7.00.

YAAEMVEYL: the pIC50 is 7.49 in test [1] (setting [7]); 9.28 in test [2] (setting [7]); 8.68 in test [3] (setting [7]); 7.92 in test [4] (setting [7]); 7.89 in test [5] (setting [7]).

For the sequence YASALVLLI, the negative logarithm of the IC50 (pIC50) is 7.89 in test [1] (source organism: SARS-CoV1); 8.49 in test [2] (source organism: SARS-CoV1); 8.31 in test [3] (source organism: SARS-CoV1); 8.06 in test [4] (source organism: SARS-CoV1); 8.00 in test [5] (source organism: SARS-CoV1).

As to YASLTTIGT, the pIC50 is 6.06 in test [1] (setting [7]); 6.39 in test [2] (setting [7]); 6.84 in test [3] (setting [7]); 6.79 in test [4] (setting [7]); 7.28 in test [5] (setting [7]).

Consider YCNYTKFWYV, for which the pIC50 was 7.12 in test [1] (setting [9]); 6.49 in test [2] (setting [9]); 6.99 in test [3] (setting [9]); 8.19 in test [4] (setting [9]); 6.31 in test [5] (setting [9]).

Regarding YCNYTRFWYI, the negative logarithm of the IC50 (pIC50) is 6.49 in test [1] (setting [10]); 5.98 in test [2] (setting [10]); 5.36 in test [3] (setting [10]); 7.09 in test [4] (setting [10]); 5.87 in test [5] (setting [10]).

As to YIAGLKIEEI, the negative-log IC50 (pIC50) in test [1] (setting [7]) was 8.02; in test [2] (setting [7]) it was 8.05; in test [3] (setting [7]), 8.28; in test [4] (setting [7]) it was 6.87; in test [5] (setting [7]) it was 6.17.

For the sequence YIALCKVTV, the pIC50 was 7.82 in test [1] (setting [7]); 7.92 in test [2] (setting [7]); 7.62 in test [3] (setting [7]); 7.72 in test [4] (setting [7]); 7.32 in test [5] (setting [7]).

Regarding YIFFASFYYI, the negative logarithm of the IC50 (pIC50) is 7.82 in test [1] (source organism: SARS-CoV1); 9.34 in test [2] (source organism: SARS-CoV1); 7.22 in test [3] (source organism: SARS-CoV1); 9.10 in test [4] (source organism: SARS-CoV1); 8.66 in test [5] (source organism: SARS-CoV1).

On to YIILFILFFA, for which the pIC50 in test [1] (setting [7]) was 6.63; in test [2] (setting [7]), 6.58; in test [3] (setting [7]) it was 6.17; in test [4] (setting [7]), 5.98; in test [5] (setting [7]), 6.57.

YIMRVMANNV: the pIC50 was 7.31 in test [1] (setting [7]); 7.64 in test [2] (setting [7]); 8.70 in test [3] (setting [7]); 7.85 in test [4] (setting [7]); 7.38 in test [5] (setting [7]).

As to YIPPCQCTV, the pIC50 was 6.97 in test [1] (setting [7]); 6.71 in test [2] (setting [7]); 6.35 in test [3] (setting [7]); 7.04 in test [4] (setting [7]); 6.64 in test [5] (setting [7]).

With YIWKSYVHI, the pIC50 in test [1] (source organism: SARS-CoV1) was 7.62; in test [2] (source organism: SARS-CoV1), 7.07; in test [3] (source organism: SARS-CoV1), 7.89; in test [4] (source organism: SARS-CoV1) it was 8.05; in test [5] (source organism: SARS-CoV1), 6.98.
